B1: mouse mGluR6 (metabotropic glutamate receptor 6), wild type, complex N-glycosylated form (upper dimer band, band C) [modified: complex N-glycosylation (Endo H-resistant, PNGase F-sensitive); N-glycosylation sites N290, N445 … (parent)
chain 1: AGSVRLAGGLTLGGLFPVHARGAAGRACGTLKKEQGVHRLEAMLYALDRINADPELLPGVRLGARLLDTCSRDTYALEQALSFVQALIRGRGDGEEASVRCPGGVPPLRAAPPERVVAVVGASASSVSIMVANVLRLFAIPQISYASTAPELSDSTRYDFFSRVVPPDSYQAQAMVDIVRALGWNYVSTLASEGNYGESGVEAFVQISREAGGVCIAQSIKIPREPKPGEFHKVIRRLMETPNARGIIIFANEDDIRRVLEATRQANLTGHFLWVGSDSWGSKISPILNLEEEAVGAITILPKRASIDGFDQYFMTRSLENNRRNIWFAEFWEENFNCKLTSSGGQSDDSTRKCTGEERIGQDSTYEQEGKVQFVIDAVYAIAHALHSMHQALCPGHTGLCPAMEPTDGRTLLHYIRAVRFNGSAGTPVMFNENGDAPGRYDIFQYQATNGSASSGGYQAVGQWAEALRLDMEALQWSGDPHEVPPSQCSLPCGPGERKKMVKGVPCCWHCEACDGYRFQVDEFTCEACPGHMRPTPNHTGCRPTPVVRLTWSSPWAALPLLLAVLGIMATTTIIATFMRHNDTPIVRASGRELSYVLLTGIFLIYAITFLMVAEPCAAVCASRRLLLGLGTTLSYSALLTKTNRIYRIFEQGKRSVTPPPFISPTSQLVITFGLTSLQVVGVIAWLGAQPPHSVIDYEEQRTVDPEQARGVLKCDMSDLSLIGCLGYSLLLMVTCTVYAIKARGVPETFNEAKPIGFTMYTTCIIWLAFVPIFFGTAQSAEKIYIQTTTLTVSLSLSASVSLGMLYVPKTYVILFHPEQNVQKRKRSLKKTSTMAAPPKSENSEDAK
chain 2: DCWLIEGDKGYVWLAICSQNQPPYETIPQHINSTVHDLRLNENKLKAVLYSSLNRFGNLTDLNLTKNEISYIEDGAFLGQTSLQVLQLGYNRLSNLTEGMLRGMSRLQFLFVQHNLIEVVTPTAFSECPSLISIDLSSNRLSRLDGATFASLASLMVCELAGNPFNCECDLFGFLAWLVVFNNVTKNYDRLQCESPREFAGYPLLVPRPYHSLNAITVLQAKCRNGSMPARPVSHPTPYSTDAQREPDENSGFNPDEILSVEPPASSTTDASAGPAIKLHQVTFTSATLVVIIPHPYSKMYVLVQYNNSYFSDVMTLKNKKEIVTLDKLRAHTEYTFCVTSLRNSRRFNHTCLTFTTRDLVPGDLAPSTSTTTHY
B2: mouse mGluR6 (metabotropic glutamate receptor 6), wild type, complex N-glycosylated form (upper dimer band, band C) [modified: complex N-glycosylation (Endo H-resistant, PNGase F-sensitive) … (parent)
chain 1: B1 chain 1
chain 2: QGDCWLIEGDKGFVWLAICSQNQPPYEAIPQQINNTIVDLRLNENRIRSVQYASLSRFGNLTYLNLTKNEIGYIEDGAFSGQFNLQVLQLGYNRLRNLTEGMLRGLSKLEYLYLQANLIEVVMASAFWECPNIVNIDLSMNRIQQLGSGTFAGLTKLSVCEIYSNPFYCSCELLGFLRWLAAFTNATQTHDRVQCESPPVYAGYFLLGQGRHGHQRSILSKLQSVCTEGSYTAEVLGPPRPVPGRSQPGHSPPPPPPEPSDMPCADDECFSGDGTTPLVILTTLVPQTEARPSMKVKQLTQNSATIMVQLPSPFNRMYTLEQYNNSKSFTVSKLTQPQEEIRLTNLYTLTNYTYCVVSTSSGTHHNHTCLTICLPKPPSPPGPVPSPSTATHY

Variants of: B1
Test: pull-down
Conditions: with ELFN2 extracellular domain fused to human Fc [mouse]; parent: 1; read off a plot

ratio to parent | Variant
0.04 | chain 1 N422Q
0.32 | chain 1 N538Q
0.52 | chain 1 N267Q
0.32 | chain 1 N450Q

Variants of: B2
Test: pull-down
Conditions: with ELFN1 extracellular domain fused to human Fc [mouse]; five times more transfected cells were used for 4Q; parent: 1; read off a plot

ratio to parent | Variant
0.04 | chain 1 N267Q N422Q N450Q N538Q

Same assay, conditions: with ELFN1 extracellular domain fused to human Fc [mouse]; parent: 1; read off a plot

ratio to parent | Variant
0.05 | chain 1 N422Q
0.13 | chain 1 N538Q
0.59 | chain 1 N267Q
0.6 | chain 1 N450Q

Reference: PMC10973816
